In the series the target is T1, Purified, recombinant sGNK.
T1 chain: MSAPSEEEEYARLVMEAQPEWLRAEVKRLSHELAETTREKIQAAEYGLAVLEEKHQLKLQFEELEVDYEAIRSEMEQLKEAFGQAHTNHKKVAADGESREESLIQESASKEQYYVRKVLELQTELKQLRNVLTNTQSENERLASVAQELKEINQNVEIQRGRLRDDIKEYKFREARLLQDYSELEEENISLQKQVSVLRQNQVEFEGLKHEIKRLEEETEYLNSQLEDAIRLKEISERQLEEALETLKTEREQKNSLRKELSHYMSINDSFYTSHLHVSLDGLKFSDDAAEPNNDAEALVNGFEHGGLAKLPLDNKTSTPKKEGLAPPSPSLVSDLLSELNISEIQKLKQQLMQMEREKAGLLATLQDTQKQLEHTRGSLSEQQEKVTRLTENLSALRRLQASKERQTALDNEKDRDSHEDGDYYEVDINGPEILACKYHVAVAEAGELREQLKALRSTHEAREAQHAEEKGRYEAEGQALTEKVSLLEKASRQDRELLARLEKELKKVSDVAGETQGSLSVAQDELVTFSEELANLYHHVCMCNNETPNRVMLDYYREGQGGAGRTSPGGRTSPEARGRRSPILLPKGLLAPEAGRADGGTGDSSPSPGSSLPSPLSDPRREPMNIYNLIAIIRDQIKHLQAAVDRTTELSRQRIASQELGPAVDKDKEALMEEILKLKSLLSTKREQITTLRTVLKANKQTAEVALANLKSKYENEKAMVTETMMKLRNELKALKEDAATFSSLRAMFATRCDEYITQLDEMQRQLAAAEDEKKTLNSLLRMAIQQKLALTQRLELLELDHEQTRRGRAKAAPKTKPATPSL

B1: Human recombinant GNK (hu-rGNK) (protein)
chain: MSVLGEYERHCDSINSDFGSESGGCGDSSPGPSASQGPRAGGGAAEQEELHYIPIRVLGRGAFGEATLYRRTEDDSLVVWKEVDLTRLSEKERRDALNEIVILALLQHDNIIAYYNHFMDNTTLLIELEYCNGGNLYDKILRQKDKLFEEEMVVWYLFQIVSAVSCIHKAGILHRDIKTLNIFLTKANLIKLGDYGLAKKLNSEYSMAETLVGTPYYMSPELCQGVKYNFKSDIWAVGCVIFELLTLKRTFDATNPLNLCVKIVQGIRAMEVDSSQYSLELIQMVHSCLDQDPEQRPTADELLDRPLLRKRRREMEEKVTLLNAPTKRPRSSTVTEAPIAVVTSRTSEVYVWGGGKSTPQKLDVIKSGCSARQVCAGNTHFAVVTVEKELYTWVNMQGGTKLHGQLGHGDKASYRQPKHVEKLQGKAIHQVSCGDDFTVCVTDEGQLYAFGSDYYGCMGVDKVAGPEVLEPMQLNFFLSNPVEQVSCGDNHVVVLTRNKEVYSWGCGEYGRLGLDSEEDYYTPQKVDVPKALIIVAVQCGCDGTFLLTQSGKVLACGLNEFNKLGLNQCMSGIINHEAYHEVPYTTSFTLAKQLSFYKIRTIAPGKTHTAAIDERGRLLTFGCNKCGQLGVGNYKKRLGINLLGGPLGGKQVIRVSCGDEFTIAATDDNHIFAWGNGGNGRLAMTPTERPHGSDICTSWPRPIFGSLHHVPDLSCRGWHTILIVEKVLNSKTIRSNSSGLSIGTVFQSSSPGGGGGGGGGEEEDSQQESETPDPSGGFRGTMEADRGMEGLISPTEAMGNSNGASSSCPGWLRKELENAEFIPMPDSPSPLSAAFSESEKDTLPYEELQGLKVASEAPLEHKPQVEASSPRLNPAVTCAGKGTPLTPPACACSSLQVEVERLQGLVLKCLAEQQKLQQENLQIFTQLQKLNKKLEGGQQVGMHSKGTQTAKEEMEMDPKPDLDSDSWCLLGTDSCRPSL
For B1, the “phosphorylation of sGNK by GNK (kinase assay with gamma-32P-ATP, SDS-PAGE, Phosphoimager)” value is “GNK-mediated phosphorylation of sGNK was demonstrated using the kinase assay described above, except purified, recombinant sGNK was added to the kinase reaction mixture”.

The values are drawn from patent US20020182656.
